T1: TJP3_3, O95049
T1 sequence (O95049 375-456, limits assumed, looked up): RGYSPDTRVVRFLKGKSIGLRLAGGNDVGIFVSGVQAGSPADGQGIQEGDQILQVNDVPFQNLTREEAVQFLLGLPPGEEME

T2: TX1BP3, O14907
T2 sequence (O14907 10-122, limits assumed, looked up): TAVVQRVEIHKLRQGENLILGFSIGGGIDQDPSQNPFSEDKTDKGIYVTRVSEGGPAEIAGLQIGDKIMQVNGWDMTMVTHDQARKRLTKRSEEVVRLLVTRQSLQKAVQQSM

T3: DFNB31_3, Q9P202
T3 sequence (Q9P202 811-907, limits assumed, looked up): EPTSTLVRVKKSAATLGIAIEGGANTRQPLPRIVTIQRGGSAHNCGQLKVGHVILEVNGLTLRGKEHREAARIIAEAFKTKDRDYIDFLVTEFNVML

T4: LIN7A, O14910
T4 sequence (O14910 103-200, limits assumed, looked up): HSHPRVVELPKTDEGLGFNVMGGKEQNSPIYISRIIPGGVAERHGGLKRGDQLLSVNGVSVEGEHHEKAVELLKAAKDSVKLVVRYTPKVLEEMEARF

T5: RADIL, Q96JH8
T5 sequence (Q96JH8 971-1071, limits assumed, looked up): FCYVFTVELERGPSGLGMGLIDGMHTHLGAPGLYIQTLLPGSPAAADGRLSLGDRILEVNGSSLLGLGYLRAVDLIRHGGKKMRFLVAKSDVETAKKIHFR

T6: APBA3_1, O96018
T6 sequence (O96018 389-490, limits assumed, looked up): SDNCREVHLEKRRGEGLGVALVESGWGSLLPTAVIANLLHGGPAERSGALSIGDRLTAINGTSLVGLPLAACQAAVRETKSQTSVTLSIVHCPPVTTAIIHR

T7: SNTG1, Q9NSN8
T7 sequence (Q9NSN8 52-150, limits assumed, looked up): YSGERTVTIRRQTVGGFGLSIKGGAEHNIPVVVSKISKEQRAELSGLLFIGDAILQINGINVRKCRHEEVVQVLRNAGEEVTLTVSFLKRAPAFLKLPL

T8: SYNJ2BP, P57105
T8 sequence (P57105 8-110, limits assumed, looked up): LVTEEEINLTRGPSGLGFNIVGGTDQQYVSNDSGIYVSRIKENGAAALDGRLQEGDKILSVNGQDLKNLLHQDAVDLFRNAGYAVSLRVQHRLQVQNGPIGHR

T9: PARD3B_1, Q8TEW8
T9 sequence (Q8TEW8 196-299, limits assumed, looked up): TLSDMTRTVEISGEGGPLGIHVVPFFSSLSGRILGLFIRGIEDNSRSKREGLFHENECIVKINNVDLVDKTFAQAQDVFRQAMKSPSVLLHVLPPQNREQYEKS

T10: DLG3_2, Q92796
T10 sequence (Q92796 221-321, limits assumed, looked up): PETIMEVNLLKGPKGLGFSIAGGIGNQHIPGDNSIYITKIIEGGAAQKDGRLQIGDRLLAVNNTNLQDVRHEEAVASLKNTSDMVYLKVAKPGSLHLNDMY

T11: NHERF3_1, Q5T2W1
T11 sequence (Q5T2W1 4-100, limits assumed, looked up): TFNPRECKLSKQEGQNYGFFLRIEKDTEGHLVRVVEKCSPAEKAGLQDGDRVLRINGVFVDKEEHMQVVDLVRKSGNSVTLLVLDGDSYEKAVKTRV


Assays:
Assay in all cases: holdup assay
Design in all cases: key: below the threshold = too weak to quantify, mostly under pKd 3.1 to 4
Details in all cases: plain residues with an end cap or a label only (N-terminal biotin on a linker: ado-ado)
FRMPD2_1, Q68DX3 = target: FRMPD2_1, Q68DX3
TJP3_3, O95049 = target: T1, TJP3_3, O95049
TX1BP3, O14907 = target: T2, TX1BP3, O14907
MAGI2_3, Q86UL8 = target: MAGI2_3, Q86UL8
GORASP2, Q9H8Y8 = target: GORASP2, Q9H8Y8
DFNB31_3, Q9P202 = target: T3, DFNB31_3, Q9P202
CASK, O14936 = target: CASK, O14936
DLG2_2, Q15700 = target: DLG2_2, Q15700
NOS1, P29475 = target: NOS1, P29475
MAGI2_6, Q86UL8 = target: MAGI2_6, Q86UL8
Inadl_9, Q8NI35 = target: Inadl_9, Q8NI35
IL16_4, Q14005 = target: IL16_4, Q14005
MAGI1_1, Q96QZ7 = target: MAGI1_1, Q96QZ7
LIN7A, O14910 = target: T4, LIN7A, O14910
RADIL, Q96JH8 = target: T5, RADIL, Q96JH8
DLG2_3, Q15700 = target: DLG2_3, Q15700
APBA3_1, O96018 = target: T6, APBA3_1, O96018
GRIP2_5, Q9C0E4 = target: GRIP2_5, Q9C0E4
DLG5_1, Q8TDM6 = target: DLG5_1, Q8TDM6
SNTG1, Q9NSN8 = target: T7, SNTG1, Q9NSN8
SYNJ2BP, P57105 = target: T8, SYNJ2BP, P57105
IL16_3, Q14005 = target: IL16_3, Q14005
PARD3B_1, Q8TEW8 = target: T9, PARD3B_1, Q8TEW8
DLG3_2, Q92796 = target: T10, DLG3_2, Q92796
FRMPD4, Q14CM0 = target: FRMPD4, Q14CM0
NHERF3_1, Q5T2W1 = target: T11, NHERF3_1, Q5T2W1
FRMPD3, Q5JV73 = target: FRMPD3, Q5JV73
Chain of FRMPD3, Q5JV73 (Q5JV73 12-100): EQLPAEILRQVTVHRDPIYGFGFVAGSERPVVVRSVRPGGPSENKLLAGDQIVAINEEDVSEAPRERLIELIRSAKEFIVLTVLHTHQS

Chain of IL16_3, Q14005 (Q14005 1107-1207): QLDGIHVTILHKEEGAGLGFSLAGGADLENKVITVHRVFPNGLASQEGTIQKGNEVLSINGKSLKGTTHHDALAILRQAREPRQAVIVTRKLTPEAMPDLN
Chain of FRMPD2_1, Q68DX3 (Q68DX3 770-861): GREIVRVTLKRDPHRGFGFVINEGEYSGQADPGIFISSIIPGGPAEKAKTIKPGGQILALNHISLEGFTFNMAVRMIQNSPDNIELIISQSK
Chain of MAGI2_6, Q86UL8 (Q86UL8 1141-1229): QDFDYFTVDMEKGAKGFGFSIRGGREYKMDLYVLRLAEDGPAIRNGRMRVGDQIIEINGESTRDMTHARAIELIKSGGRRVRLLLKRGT
Chain of MAGI2_3, Q86UL8 (Q86UL8 600-682): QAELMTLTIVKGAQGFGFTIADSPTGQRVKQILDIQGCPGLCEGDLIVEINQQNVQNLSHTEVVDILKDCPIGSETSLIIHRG
Chain of NOS1, P29475 (P29475 9-101): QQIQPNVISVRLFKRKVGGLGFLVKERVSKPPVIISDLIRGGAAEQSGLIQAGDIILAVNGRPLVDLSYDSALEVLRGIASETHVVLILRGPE
Chain of Inadl_9, Q8NI35 (Q8NI35 1530-1615): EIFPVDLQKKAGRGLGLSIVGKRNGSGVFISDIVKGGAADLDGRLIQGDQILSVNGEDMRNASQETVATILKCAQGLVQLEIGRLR
Chain of GRIP2_5, Q9C0E4 (Q9C0E4 544-642): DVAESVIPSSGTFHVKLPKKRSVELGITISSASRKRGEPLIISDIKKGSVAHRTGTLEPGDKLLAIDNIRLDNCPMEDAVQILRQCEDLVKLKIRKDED
Chain of IL16_4, Q14005 (Q14005 1229-1329): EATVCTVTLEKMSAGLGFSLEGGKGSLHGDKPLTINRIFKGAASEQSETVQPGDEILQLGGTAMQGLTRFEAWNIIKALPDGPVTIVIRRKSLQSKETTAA
Chain of FRMPD4, Q14CM0 (Q14CM0 67-160): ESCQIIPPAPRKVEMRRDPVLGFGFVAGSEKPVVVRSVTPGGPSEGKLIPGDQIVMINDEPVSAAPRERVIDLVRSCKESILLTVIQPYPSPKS
Chain of DLG5_1, Q8TDM6 (Q8TDM6 617-713): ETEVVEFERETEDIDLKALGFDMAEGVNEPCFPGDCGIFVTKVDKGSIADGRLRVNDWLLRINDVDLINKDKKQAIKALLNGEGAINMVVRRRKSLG
Chain of MAGI1_1, Q96QZ7 (Q96QZ7 1-106): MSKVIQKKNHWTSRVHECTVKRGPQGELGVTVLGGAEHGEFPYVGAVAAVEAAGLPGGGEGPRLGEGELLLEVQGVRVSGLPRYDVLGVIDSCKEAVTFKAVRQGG
Chain of CASK, O14936 (O14936 487-570): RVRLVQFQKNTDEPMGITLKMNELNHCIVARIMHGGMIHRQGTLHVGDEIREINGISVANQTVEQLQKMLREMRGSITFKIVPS

pKd (FRMPD2_1, Q68DX3)	pKd (TJP3_3, O95049)	pKd (TX1BP3, O14907)	pKd (MAGI2_3, Q86UL8)	pKd (GORASP2, Q9H8Y8)	pKd (DFNB31_3, Q9P202)	pKd (CASK, O14936)	pKd (DLG2_2, Q15700)	pKd (NOS1, P29475)	pKd (MAGI2_6, Q86UL8)	pKd (Inadl_9, Q8NI35)	pKd (IL16_4, Q14005)	pKd (MAGI1_1, Q96QZ7)	pKd (LIN7A, O14910)	pKd (RADIL, Q96JH8)	pKd (DLG2_3, Q15700)	pKd (APBA3_1, O96018)	pKd (GRIP2_5, Q9C0E4)	pKd (DLG5_1, Q8TDM6)	pKd (SNTG1, Q9NSN8)	Binder	also measured
below the threshold	4.86	4.98	below the threshold	4.39	3.75	3.74	4.03	3.78	5.4	3.72	below the threshold	below the threshold	below the threshold	4.89	below the threshold	3.63	3.58	below the threshold	4.57	QYPGSPDSWV [PKP4, Q99569]	pKd (SYNJ2BP, P57105): 4.94; pKd (IL16_3, Q14005): 3.55; pKd (PARD3B_1, Q8TEW8): 3.56; pKd (DLG3_2, Q92796): 4.13; pKd (FRMPD4, Q14CM0): 3.53; pKd (NHERF3_1, Q5T2W1): below the threshold; pKd (FRMPD3, Q5JV73): 3.47
below the threshold	below the threshold	below the threshold	below the threshold	3.56	below the threshold	below the threshold	below the threshold	below the threshold	below the threshold	below the threshold	below the threshold	below the threshold	below the threshold	3.7	below the threshold	below the threshold	below the threshold	below the threshold	4.04	YPKQMPLSQV [FZD8, Q9H461]	pKd (SYNJ2BP, P57105): below the threshold; pKd (IL16_3, Q14005): below the threshold; pKd (PARD3B_1, Q8TEW8): below the threshold; pKd (DLG3_2, Q92796): below the threshold; pKd (FRMPD4, Q14CM0): below the threshold; pKd (NHERF3_1, Q5T2W1): below the threshold; pKd (FRMPD3, Q5JV73): below the threshold
below the threshold	below the threshold	below the threshold	below the threshold	below the threshold	3.82	below the threshold	below the threshold	below the threshold	below the threshold	below the threshold	3.59	below the threshold	3.53	3.66	below the threshold	below the threshold	below the threshold	below the threshold	below the threshold	LGHTPFVDEL [UQCRC2, P22695]	pKd (SYNJ2BP, P57105): 4; pKd (IL16_3, Q14005): below the threshold; pKd (PARD3B_1, Q8TEW8): below the threshold; pKd (DLG3_2, Q92796): 3.48; pKd (FRMPD4, Q14CM0): 3.77; pKd (NHERF3_1, Q5T2W1): 4.73; pKd (FRMPD3, Q5JV73): below the threshold

— paper PMC9482650, “Quantitative fragmentomics allow affinity mapping of interactomes” (Nature Communications, 2022)
